experiment: soluble on expression in E. coli; label from the status in PepcDB or PDB records

Sequence | soluble on expression in E. coli
MSLGNAFIALDFETANGKRTSICSVGMVKVVNNEIVESFYTLVNPFDYFSQTNIEVHGITPEDVIDAPSFEYVFPYMMQFIDKLPVVAHNAAFDMNVLHQSLKQLNIETPSMIYFCSYQLAKRTIDAYRYGLKHLMKHYKLDFHGHHDALNDAKACAMITFRLLKHYDNLQSMLQIYGKNLKEGHHHHHH | not soluble
MSLGNDRWRAEFPLERIGTYEFRVEAWRDVFATLHADLEKKRAANTVLPVDVQEAVAAVQAAQARSDGALAERLQTVLTRIGAQSEPLQQLAIVLEPDTAQAMALADDKPFRSEYPVTFRVESERRAAHFSSWYELFPRSQSGDASRHGTFDDVIKRLPHIRAMNFDVLYMPPIHPIGLNNRKGRNNSVTAVEGEPGSPYAIGATDGGHTEVHAELGGLEGFRRLIEAARAQGLEVALDFAIQCAPDHPWLKEHKDWFTWRADGSIPYAENPPKKYQDIVNVDFYASGAVPDLWNTLRDAVLFWVNEGVTLFRVDNPHTKPFPFWEWLIADVRGRRPDVVFLSEAFTRPKMMYRLAKCGFSQSYTYFTWRNHKHELQAYVEELNDGVPRECFRPHFFVNTPDINPLFLQTSGRNGHLIRAALATTLSGLWGMYQGFELCEATPLAPGKEEYLDSEKFQLRAWPERVPGDIVEEITRFNQLRRMHPELQSHLGTRFYQAHNDQVLYYGKFLDAGYLSRSRSMVLVAINLDPHAGQDADIEIPLWELGLPDHASVAVEDLWDGHRFAWHGKYQHIRLEATRPFALWRIRAGEGHHHHHH | not soluble
MSLGNSFRQGANAYFDYVNTQGGIYGRALELLTYDDKYEPKLTESNVRHLIDKEGVFALMGTIGTPTAMAAIPVALEEQIPFLMPLSGARFLREPFNRLIFNLRPSYFEEIEAISSYLTEERGFKRIAIFYQNDSFGIEGLEGLTQSLDKRGLKIVAEGIYPRNTLSVSDAVYAIHPKSPEAIVMVGTYEASALFIQRYKELNPASPPLFVNISFVAATALAEALQGNMRQVLVSNVTPSPWDISNPLVREYHRLYVESMGHPPCFLSFEGFLSAKIIVEALHKTGPILSHKRFIKAMENLSPDFLSDLKLRFSATNHQAFEQVFITGYENGRFVTLKSYEGHHHHHH | not soluble
MSLGQDEALEKALDMIRNADRIVIGGGAGLSACGGLNYMSLEVLKKEFPALARRGYHTLWEALWDDRRTKQQKIGMMAAEVLWACYDFPVIRAYQDLLRMVEDKDYFVLTSNIDRQFHKAGFEEERIFEPQCSASDLQCQTPCCRDIWDGESVWRKIAANMDRETYACREEDIPRCDRCHAPAVQNMRGIKSFIPDKVMWNRIEFEQYIKEASDLRTVFLELGAGFNSPGVIRHPFQRLAYRYPKAALIRMNQEFPKVPEKIKDRSVEIAGDIGEALAQMRRLYEREGHHHHHH | soluble
MSLGRYCTDTEWTWFIPGKSPIKTDTIFREVAINGKTGLRTCHIDENTRFEVYEFWPSDLLRIFRRAGIQRHTPPFFEPGCALSGNSGISPQITSPQAGVSYIVHANTQSNKIIPLTAVTDAGIAHLYWFINESFVAETKSDEPYLWQAKPGKYVVRVVDDRGLSDARDITIQMVSEGHHHHHH | soluble
MSLGSEGTSAKISISAIQVNANNPIEDRLLIQRMRLNLPGGENKDFVISAVIDGHGGWQVAEYVQNNFIRIFQKELSQYMSSLVREGSANESNPISQINETDIIAGLFYSLKKTYYILDEELKSKLEVAYNLGFSKLASVGACTTVSIITEDAILTANSGDCLSVYCNENGIWLPLNEQLSAMNPQEQKRLEEIHKHEKDNLIQCKQILHEKFLMGLYTIPKYRGCYVKGILQPSRAIGDFRLKSMDFNYNWEKDLSTEKLLPTFSYVLKDKESEQSKKEQHRENEDLNEDEFPYSYDLINGNNSINMRRDSYRYFVKNPLSFPYVRSEPMLHLFFYNSLNKNLSSTDNTSVEKISPNEYSEGHHHHHH | soluble
MSLGSGVAEPEFPVHGDDRAAAFFDLDNTVMQGAAIFHFGRGLYKRKFFETRDLARFAWQQAWFRLAGFEDPEHMQDARDSALSIVKGHRVSELKSIGEEIYDEYMAERIWPGTRALAQAHLDAGQKVWLVTAAPVEIAQVIARRLGLTGALGTVAESIGGVYTGKLVGEPLHGPAKAEAVRALATAEALDLSRCAAYGDSHNDIPMLSLVGHPYAINPDSKLRKHARELEWRLRDYRTGRKAAKEGHHHHHH | soluble
MSLGSMGPAQFVGRQTLATTPMGDVEIGLQERNGQLEVDIIQARGLTAKPGSKTLPAAYIKAYLLENGICIAKKKTKVARKSLDPLYNQVLLFPESPQGKVLQVIVWGNYGRMERKQFMGVARVLLEELDLTTLAVGWYKLFPTSSMVDPATGPLLRQASQLSLESTVGPCGERSEGHHHHHH | soluble
MSLGTIIIVDDNKGVLTAVQLLLKNHFSKVITLSSPVSLSTVLREENPEVVLLDMNFTSGINNGNEGLFWLHEIKRQYRDLPVVLFTAYADIDLAVRGIKEGASDFVVKPWDNQKLLETLLNAASQAKDGKKKNRKKESSPVSAMYWGESSAMQQLRTLIEKVATTNANILITGENGTGKEMLAREIHALSPRSAESMISVDMGAITESLFESELFGHVKGSFTDAHADRTGKFEAADRSSLFLDEIGNLPFHLQAKLLTAIQQRSIVRVGSNQSIPVDIRLICATNRNLQEMVDKGLFREDLLYRINTIHVEIPPLRKRKEDIVPLAERFIARFCKQYDKASISLSPAACEKLTAHAWYGNIRELEHSIEKAVIISDGETIPAEMFQLVQKTENPETETSTLEDMEKAMIRKALDKCGGNLSAVAAQLGITRQTLYNKMKKFGLEGHHHHHH | soluble
MSLGTILHSELEKFYDPNLIVGNETADDAAVYDLGNGTAIISTTDFFMPIVDDPFDFGRIAATNAISDIFAMGGKPIMGIAILGFPTNVLPAEVAQKIVDGGRFACHQAGIALAGGHSIDSPEPIFGLAVTGVIDTEKVKRNASAKSGCKLYMTKPLGIGILTTAEKKGKLKPEHQGLATAAMCQMNSIGSQFSQVDGVTAMTDVTGFGLLGHLIEICEGSNLSAVVFSDKIKTLDGVKDYIAQGCVPGGTGRNFDSYGHKVGILTEEQKAILCDPQTSGGLLVAVELNSVQTVIDIAKDAGIDLYEVGKLKPKSESDIVVEVKEGHHHHHH | soluble
MSLGVNFQPVAFTGRIDQSQREKKRITIPDVMKLVEEQTGGEIPCNAWYPVSFVVPISRFLSAMRNIPIPELTAHPHCGAGTYVFYEEGHFIPITNFFDVESFIELLKEITPEINGRVSRVLSLAKVIKQVPKFIDEKKGPKSVNTTRMILDLLKKGDMENTSRFHRNTLFLGTMHFQDLYNIDLERVKKCGVHYATPDGRIIPFCTYNEGHHHHHH | not soluble
MSLGYLEAAPYGINAPFAWEVQGGKGSGITFVDMEYGWLLNHEDLVHQNIELMSGINIDQHVGHGTSVLGIVSSEDNEVGNIGIAPKAKAKVISQIRDNGQYNTADAILSAVNQLEAGDVLLLEAQASFDGYGDKYLPVEVQPDIFDAIRAGTDKGVVIIEAGANGWNDLDQFKDRNGKQILNRNSKDFKDSGAIMVGAGSSSFPHERMWFSNYGSRIDVYGWGENVDTTTAEQSRSAVNLYTSSFSGTSSASPIIAGAATLVQSIAKENLGQPYRPSELRAILSNENTGTKSKDPYADQIGVLPDLKSILVNLGYGQRKPNGGNELQVTENEPNNERIQANKVNFHTPMKGTLHNSDRVDVFTFQMDSPENITISLLNEQNIGMTWVLHHESDLNNYVAYGENEGNVVKGTYHAKPGKYYLYVYKYENKDGSYVLNIKEGHHHHHH | soluble
MSLHLYTKHIYFIGGKGGVGKSTSAASFAWRCAERGEKTLLISTDPAHNLGDLFHTEIGAKHKKITDNLFATEIDPEQETRRYIQSVKDNLRGMVKSTMLDEVNRQIDAAAATPGADEAAMFNAISSIVLDEQGTYDKLVFDTAPTGHTIRLLTLPEMMGVWIDGMVKKRKKINENYSNLLNDGEPVDDPIYDTLQQRKERFAAVRNVLLDPKKTGFMFVLIPERLPILETEKAVKLLAKHDLHVETLIINKILPDVADGQFLEKRRQIEQRYLQQIHNTFRKQTLLRVPLFPEDIGSIEALYHFARYLEPTAEGHHHHHH | soluble
MSLIDTMQYGKNDSLRDEIKAYWSGRAATFDLSPGHEIFSEDERAAWHALILKHLGRGEGRKALDLASGTGVISHLMDDLGFQVTGMDWSETMLGLAREKAKSRGRNIRFFVGDAENTMEPDESADVIITRHLVWTLVDPQASFAEWFRVLKPGGKLLIVDGDFVNTGWRERLVKKLAVSLESIGLVKADQPHKPADPENTFNSILSRVYFSKGARAGDVATMLGATGFEPVSVDQELRAIHRAQAKNFSLLKGILRGLQHRYAVCAVKPDTSVKGEGHHHHHH | not soluble
MSLIEKLEEIFKKGSVTYYNSSYFFPKKIREDVTKLYAFVRVFDDLVDSVPQKIEEYYNLRKLYQLEKSGYNTGNIVLQNFVELARRKGFEDSWIDAFLDAMESDIYKKVYYSIEELLKYMYGSAEVVGLFMMKILDLHNDSMYYARMLGRAMQFLNFIRDVQEDLYLGRQYLPVEDMEKFGIDKMECNEGFIEFIRYEISRYFEFEREAEKGFKFIPARYLVPIKTASEMYKWSALRIKKSPCIVLSKKVKPRRTKIVITVIKNFAGVYLWRSLNPIEGHHHHHH | soluble
MSLIESVMTVLVTRPDEQGAELCQLLHQQGIPALHHPLLAISASPQLAALAEDLSSFDIIIAVSQHAVIFSDQFLQHRRICWPNNAIYLAVGQKTAHVFSKACQQSVDYPEISDSEHLLALSMLRDVAGKKVLILRGNGGRELIYSTLVERGATVRYQEAYCRHERPFAAAECVQKWQLAKVDSLVITSSEQLAFFIRQFETSHLPWVQQLTLLVPSQRIATLAHQLGFHRIVVTLSAANRDLVAALMPEKPTGTLSNDQQQEGHHHHHH | soluble
MSLIIDCHGHVSAPVELWAYKASLLAHRGSHGRGGVKVTDEQIIAAAHHKETWPDGHIELLHNHGTDMQLISPRTFQMMNSAKPARVVHWFCEEVNTLIHRQCTLIPEMFIPVAGLPQVAGEPIENVFAEMDRCVSMGFKGFLLNPDPYENGAEEAPPLGDRYWYPLYEKLCELDLPAHIHATGSQSERSPYSLHFINEETIATYNLCTSSVFDDFPQLKVVVSHGGGAIPYQLGRFESQSRRSKHLFSERMAKLYFDTVLYTEGALRLLIETVGPERCLFGSECPGVGSTIDPATGKQMDHIAPFIQKFDFLSDADKKLIFEDNARKVFNLEVEGHHHHHH | soluble
MSLIKCVCLVIEEQEKLLLVQSRNREKYYFPGGKIDIGETYKQALQRELNEELQLDIPESSLIYMHTVVGEAYPQKNMKTELNCFYTTADIDWSTLVPSQEITDLQWIDKKDEHKIAPAVITWIEEQQHFKNIEREGHHHHHH | soluble
MSLIKTEFKGNNIPYEYAAGADVSDSINGNPIKSFPFEVIELPEGTKYLAWSLIDYDAIPVCGFAWIHWSVANVSVSGNSISIKADLSRTKGDYVQGKNSFTSGLLAEDFSEIENHYVGPTPPDQDHQYELTVYALDHSLNLKNGFYLNEFLKEVNQHKIDQTSINLIGRKEGGSHHHHHH | soluble
MSLINLKHSFGISRSSHDFYDIVYFYIVDGEIIGRGEAAPSKRYNETTEKIISVLNKGILVPENFEDADQLWEYIKPQLEGISALEAAANMAIWDWRGQKENKAVHDILGFNVSKLPATSYTISIGDMSELDEKIELSNPYSIIKVKLGTPNDDKEIISQIRQRTDKLIRVDANEGWSLDNAKEMSYWLADRNVEFIEQPFKAKMLNETRSLREFSPLPLFADENSLVSSDIPNIVDCFDGINIKLMKCGGLDEALKMIEIAKHFDMQIMLEGHHHHHH | not soluble

— the DeepSol protein solubility set
